Where “and” joins values, the source holds several entries; their conditions need not be identical. Equal entries are not always repeated.
Biological target: the molecule itself
Assay: SEC; fluorescence-detection size-exclusion chromatography (FSEC); crude membranes (2 mg/ml) solubilized in CYMAL-5 or DDM at a detergent:protein ratio of 3, 50 mM phosphate pH 7.5, 10 mM imidazole, 500 mM NaCl, 4°C; Superose 12 10/300 GL; GFP fluorescence of fractions

B1: human Aquaporin-1 C-terminally tagged with yeast enhanced GFP and eight histidines (hAQP1-GFP-8His) (natural protein, UniProt P29972 1-269, looked up)
chain: MASEFKKKLFWRAVVAEFLATTLFVFISIGSALGFKYPVGNNQTAVQDNVKVSLAFGLSIATLAQSVGHISGAHLNPAVTLGLLLSCQISIFRALMYIIAQCVGAIVATAILSGITSSLTGNSLGRNDLADGVNSGQGLGIEIIGTLQLVLCVLATTDRRRRDLGGSAPLAIGLSVALGHLLAIDYTGCGINPARSFGSAVITHNFSNHWIFWVGPFIGGALAVLIYDFILAPRSSDLTDRVKVWTSGQVEEYDLDADDINSRVEMKPK
notes: human Aquaporin-1 (hAQP1), 269 amino acids; coding part of the cDNA without a translational stop codon, fused in frame to yeast enhanced GFP and eight histidines; not N-glycosylated in yeast; Order on the chain: hAQP1, yEGFP, 8 His; also called hAQP1-GFP-His8; Aquaporin-1-GFP; source: S. cerevisiae PAP1500 (plasmid pPAP8230), crude membranes solubilized in CYMAL-5 or DDM; also purified (CYMAL-5, …)
- stoichiometry N: 4 and > 4

Source: paper PMC3569440, “Recombinant Production of Human Aquaporin-1 to an Exceptional High Membrane Density in Saccharomyces cerevisiae” (PLoS ONE, 2013)
